Two molecules from PMC9001700 (Communications Biology, 2022) can be followed below.

By Kd is commonly meant the constant that tells how readily two partners part at equilibrium. The low end stands for tighter binding, the high end for weaker binding.

This assay addresses SARS-CoV-2 S6P (SARS-CoV-2, Wuhan-Hu-1 (assumed), UniProt P0DTC2, stabilised, biotinylated (site not stated)). Kind of assay: BLI. Particulars: both partners purified.

B1: CV3-25 Fab (Fab, V domains shown)
VH: QVQLVESGAEVKKPGESLKISCKGSGYTFTRYWIGWVRQMPGKGLEWMGIIYPGDSDTRYSPSFQGHVTISADKSISTAYLQWNSLKASDTAMYYCARLPQYCSNGVCQRWFDPWGQGTLVTVSS
VL: EIVLTQSPSSVSASVGDRVTITCRASQGISSWLAWYQQKPGKAPKLLIYAASSLQSGVPSRFSGSGSGTDFTLTISSLQPEDFATYYCQQGNSFPYTFGQGTNLEIK
notes: also called monovalent Fab
On to B1, for which the Kd is roughly 0.6 nM.

B2: B6 mAb (antibody, V domains shown)
VH: EVQLQQSGPVLVKPGASVRMSCKASGYTITDYYLNWVKQSHGKSLEWLGVLNPYSGGSLYSQTFKGKATLTVDRSSSTAYLELNSLTSEDSAVYYCARQLGRGNGLDYWGQGTSVTVSS
VL: NIMMTQSPSSLAVSAGEKVTMSCKSSQSVLHSSDQKNYLAWYQQKPGQSPKLLIYWASTRESGVPDRFTGSGSGTDFTLTISSVQAEDLAVYFCHQYLSSYTFGGGTKLEIK
notes: source: 293 cells, purified using protein A resin
Turning to B2, the binding result is reported as “binds”.
